The values below come from the supplement of paper PMC10567573.

A short description of this data set: protein stability index of a GFP-peptide fusion (GPS, HEK-293T) (PSI 1-6); higher = more stable. As to conditions: c terminus: a fixed tail appended.

± gives the standard deviation.
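Note: 24-mer peptide tiles fused after GFP, lentivirally expressed, FACS-sorted into six equal bins by GFP/DsRed ratio, decoded by Illumina sequencing, PSI is the read-weighted mean bin number.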

For the sequence KPDDEVKETAHDLDVKSPPEPRSE [RIPK4], the protein stability index runs as follows: (treatment: DMSO) 5.63 ± 0.34; (treatment: MLN4924 1 uM, 8 h) 5.61 ± 0.37.

On to KRLKERSLDTLLEAVESRGGVPGG [SMAD6], for which the protein stability index is 4.32 ± 0.16 (treatment: DMSO) and 4.72 ± 0.12 (treatment: MLN4924 1 uM, 8 h).

With KSGPGDGFFSSAFQARLSGNNLHN [POMT2], the protein stability index reads like this: (treatment: DMSO) 3.04 ± 0.096; (treatment: MLN4924 1 uM, 8 h) 2.95 ± 0.41.

For KSPTGLKLKNDTENHQPVSLSDLE [ZNF75A], the protein stability index is, setting by setting: (treatment: DMSO) 5.3 ± 0.23; (treatment: MLN4924 1 uM, 8 h) 5.188 ± 0.043.

For the sequence KSQLGFLNVTNYCHLAHELRLSCM [DCAF4], the protein stability index runs as follows: (treatment: DMSO) 3.04 ± 0.41; (treatment: MLN4924 1 uM, 8 h) 2.57 ± 0.36.

For KSVAWEGGACPAFLPSLRPPPLTS [NCF4], the protein stability index was 3.12 ± 0.36 (treatment: DMSO) and 3.11 ± 0.078 (treatment: MLN4924 1 uM, 8 h).

Turning to KTAATRYRQKKRAEQEALTGECKE [ATF4], the protein stability index reads like this: (treatment: DMSO) 4.95 ± 0.16; (treatment: MLN4924 1 uM, 8 h) 5.1 ± 0.094.

With KTSELLVRKWRVKSALGAMGQWQL [DPCD], the protein stability index amounted to 2.56 ± 0.76 (treatment: DMSO) and 2.47 ± 0.41 (treatment: MLN4924 1 uM, 8 h).

As to KVEVDMEKIAAEIAQAEEQARKRQ [SMARCE1], the protein stability index turned out to be 4.99 ± 0.27 (treatment: DMSO) and 4.78 ± 0.37 (treatment: MLN4924 1 uM, 8 h).

On to KVPFSQEIKDLILPKISDPNFVKD [PI4K2A], for which the protein stability index (treatment: DMSO) is 3.56 ± 0.24 and the protein stability index (treatment: MLN4924 1 uM, 8 h) is 3.56 ± 0.28.

Take LAAAVVQEHSNSVGGQDTGATWRT [C18orf25]: the protein stability index was found to be 4.22 ± 0.23 (treatment: DMSO) and 4.18 ± 0.21 (treatment: MLN4924 1 uM, 8 h).

Take LACWTYGISVPSGLFVPSLLCGAA [CLCN6]: the protein stability index was 3.13 ± 0.1 (treatment: DMSO) and 3.43 ± 0.4 (treatment: MLN4924 1 uM, 8 h).

For the sequence LAEYQDLTFLTKQEILLAHRRFCE [CIB1], the protein stability index was 2.3 ± 0.1 (treatment: DMSO) and 2.54 ± 0.38 (treatment: MLN4924 1 uM, 8 h).

The sequence LAMNYLDRFLAGVPTPKSHLQLLG [CCND2] displayed a protein stability index (treatment: DMSO) of 2.94 ± 0.61 and a protein stability index (treatment: MLN4924 1 uM, 8 h) of 2.65 ± 0.76.

On to LARKGSLKNGSMGSPVNQQPKKNN [FAM219A], for which the protein stability index was 4.85 ± 0.25 (treatment: DMSO) and 4.77 ± 0.065 (treatment: MLN4924 1 uM, 8 h).

The sequence LAVSRPRSSPDDLKALTRNVNRLN [SCARA5] displayed a protein stability index (treatment: DMSO) of 3.82 ± 0.22 and a protein stability index (treatment: MLN4924 1 uM, 8 h) of 3.84 ± 0.22.

With LCKSVLEIERAIKQTQCPADPLQL [FEM1C], the protein stability index runs as follows: (treatment: DMSO) 3.17 ± 0.13; (treatment: MLN4924 1 uM, 8 h) 3.11 ± 0.26.

LCRRLNTLNKCAVMKLEISPHRKR [DLC1]: the protein stability index (treatment: DMSO) came to 2.12 ± 0.069 and the protein stability index (treatment: MLN4924 1 uM, 8 h) turned out to be 2.85 ± 0.22.

On to LDDRKNEEDGGADEHEHPLTSELD [MIA2], for which the protein stability index was 5.76 ± 0.12 (treatment: DMSO) and 5.26 ± 0.38 (treatment: MLN4924 1 uM, 8 h).

Turning to LDFLQEVTRQPRNLQDLCRIKIRQ [ASB7], the protein stability index came to 3.35 ± 0.16 (treatment: DMSO) and 3.57 ± 0.3 (treatment: MLN4924 1 uM, 8 h).

On to LDSEKPKKLRFHPKQLYFSARQGE [EHMT1], for which the protein stability index reads like this: (treatment: DMSO) 3.2 ± 0.038; (treatment: MLN4924 1 uM, 8 h) 3.4 ± 0.21.

Sequence LEETKGRYCMQLSQIQGLIGSVEE [KRT16] registered a protein stability index (treatment: DMSO) of 3.91 ± 0.17 and a protein stability index (treatment: MLN4924 1 uM, 8 h) of 3.91 ± 0.2.

As for LENTYRDFWLMVWEQKVLVIVMTT [PTPN9], the protein stability index is, setting by setting: (treatment: DMSO) 2.36 ± 0.7; (treatment: MLN4924 1 uM, 8 h) 2.59 ± 0.6.

With LENVFSSLTDDKYDVAMNRAKDLV [GOLPH3L], the protein stability index turned out to be 3.89 ± 0.32 (treatment: DMSO) and 3.92 ± 0.19 (treatment: MLN4924 1 uM, 8 h).

As to LEPLKAIIQYRLPMKKNNNLYSWD [ACSBG2], the protein stability index (treatment: DMSO) stood at 2.57 ± 0.47 and the protein stability index (treatment: MLN4924 1 uM, 8 h) came out at 2.17 ± 0.2.

With LESELLRGTQYSSLDSLDGLSLTD [PSD2], the protein stability index by setting is: (treatment: DMSO) 4.53 ± 0.22; (treatment: MLN4924 1 uM, 8 h) 4.73 ± 0.21.

For LESSYNDEMLSYLPGGTTGLQLPS [TFE3], the protein stability index runs as follows: (treatment: DMSO) 3.94 ± 0.18; (treatment: MLN4924 1 uM, 8 h) 3.88 ± 0.27.

Consider LFAEEQAEGPNRLLYKDGFSTILH [LPCAT4], for which the protein stability index runs as follows: (treatment: DMSO) 3.17 ± 0.24; (treatment: MLN4924 1 uM, 8 h) 3.1 ± 0.35.

On to LFEEPAPQALATRALPCPAHVVFR [FCHSD1], for which the protein stability index is, setting by setting: (treatment: DMSO) 3.13 ± 0.16; (treatment: MLN4924 1 uM, 8 h) 3.21 ± 0.19.

Consider LFLGIHVFLVSCALPDSVLRRFVV [AUP1], for which the protein stability index came out at 3.03 ± 0.52 (treatment: DMSO) and 2.97 ± 0.63 (treatment: MLN4924 1 uM, 8 h).

Regarding LFQVVINPNFEVAESDYSNNIMKC [LOXL2], the protein stability index runs as follows: (treatment: DMSO) 2.09 ± 0.28; (treatment: MLN4924 1 uM, 8 h) 2.5 ± 0.27.

As to LGANEVLLVVGGFGSQQSPIDVVE [KLHL12], the protein stability index reads like this: (treatment: DMSO) 2.27 ± 0.28; (treatment: MLN4924 1 uM, 8 h) 2.25 ± 0.85.

In the case of LGCFSDTEPWGGTAIRPLKILPWS [PNLIPRP1], the protein stability index runs as follows: (treatment: DMSO) 2.1 ± 0.28; (treatment: MLN4924 1 uM, 8 h) 2.43 ± 0.57.

On to LGESKEHMESRMVTETEETQEKKA [SDE2], for which the protein stability index was determined as 5.51 ± 0.3 (treatment: DMSO) and 5.75 ± 0.12 (treatment: MLN4924 1 uM, 8 h).

Take LGETKAYVFFEKDFGDMHSYVRSR [TRIB1]: the protein stability index worked out at 2.62 ± 0.42 (treatment: DMSO) and 2.37 ± 0.11 (treatment: MLN4924 1 uM, 8 h).

On to LGYPYVNSVSSHASSPYISSVQSY [DLX1], for which the protein stability index was determined as 2.29 ± 0.18 (treatment: DMSO) and 2.35 ± 0.27 (treatment: MLN4924 1 uM, 8 h).
